From patent US20250262210A1 (TRUSTEES OF COLUMBIA UNIVERSITY IN THE CITY OF NEW YORK, published 2025)

Target: T1, ELP1 (human, UniProt O95163 1-1332)
T1 sequence (looked up): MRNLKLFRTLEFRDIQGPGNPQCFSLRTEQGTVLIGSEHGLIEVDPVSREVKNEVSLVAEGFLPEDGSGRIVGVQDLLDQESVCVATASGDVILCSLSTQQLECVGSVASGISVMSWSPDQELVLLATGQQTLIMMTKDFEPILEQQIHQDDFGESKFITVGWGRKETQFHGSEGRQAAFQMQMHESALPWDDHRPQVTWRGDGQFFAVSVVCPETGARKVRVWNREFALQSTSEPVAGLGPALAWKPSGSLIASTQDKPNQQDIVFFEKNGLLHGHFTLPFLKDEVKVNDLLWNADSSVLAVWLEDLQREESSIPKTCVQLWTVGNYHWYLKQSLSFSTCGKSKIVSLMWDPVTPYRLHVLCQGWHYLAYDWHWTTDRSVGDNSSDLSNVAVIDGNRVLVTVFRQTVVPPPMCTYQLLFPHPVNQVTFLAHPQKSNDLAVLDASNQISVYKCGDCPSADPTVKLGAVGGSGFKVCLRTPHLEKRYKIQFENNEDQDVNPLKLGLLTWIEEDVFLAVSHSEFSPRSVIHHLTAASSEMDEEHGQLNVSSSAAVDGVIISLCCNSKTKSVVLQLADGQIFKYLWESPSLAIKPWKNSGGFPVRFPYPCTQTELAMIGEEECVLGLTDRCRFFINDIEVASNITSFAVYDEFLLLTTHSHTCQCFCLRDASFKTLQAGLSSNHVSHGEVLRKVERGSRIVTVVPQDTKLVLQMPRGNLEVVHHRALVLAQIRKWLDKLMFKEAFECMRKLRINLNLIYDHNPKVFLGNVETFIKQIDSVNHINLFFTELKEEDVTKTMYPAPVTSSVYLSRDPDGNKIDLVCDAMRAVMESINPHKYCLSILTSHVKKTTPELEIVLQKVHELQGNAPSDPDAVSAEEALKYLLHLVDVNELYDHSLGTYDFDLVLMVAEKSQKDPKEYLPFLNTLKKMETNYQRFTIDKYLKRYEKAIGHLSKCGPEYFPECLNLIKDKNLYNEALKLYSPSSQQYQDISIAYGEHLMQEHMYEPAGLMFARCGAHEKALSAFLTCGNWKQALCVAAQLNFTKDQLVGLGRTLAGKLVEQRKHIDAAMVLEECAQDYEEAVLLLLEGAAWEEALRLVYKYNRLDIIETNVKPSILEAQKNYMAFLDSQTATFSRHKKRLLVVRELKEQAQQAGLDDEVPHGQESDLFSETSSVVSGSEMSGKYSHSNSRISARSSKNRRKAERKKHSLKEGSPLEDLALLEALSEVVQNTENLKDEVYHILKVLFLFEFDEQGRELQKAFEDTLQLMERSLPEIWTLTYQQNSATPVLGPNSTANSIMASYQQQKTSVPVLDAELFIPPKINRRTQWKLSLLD
Assay: IP/MS, LZTR1 wild type-FLAG, U87
Summary of the method: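 Read-out: spectral counts from LC-MS/MS (Orbitrap Fusion) after MaxQuant identification. Variable modifications were Met oxidation, protein N-terminal acetylation and N/Q deamidation.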

binding result: binds
B1: LZTR1-FLAG (other, human, UniProt Q8N653 1-840, looked up)
chain: MAGPGSTGGQIGAAALAGGARSKVAPSVDFDHSCSDSVEYLTLNFGPFETVHRWRRLPPCDEFVGARRSKHTVVAYKDAIYVFGGDNGKTMLNDLLRFDVKDCSWCRAFTTGTPPAPRYHHSAVVYGSSMFVFGGYTGDIYSNSNLKNKNDLFEYKFATGQWTEWKIEGRLPVARSAHGATVYSDKLWIFAGYDGNARLNDMWTIGLQDRELTCWEEVAQSGEIPPSCCNFPVAVCRDKMFVFSGQSGAKITNNLFQFEFKDKTWTRIPTEHLLRGSPPPPQRRYGHTMVAFDRHLYVFGGAADNTLPNELHCYDVDFQTWEVVQPSSDSEVGGAEVPERACASEEVPTLTYEERVGFKKSRDVFGLDFGTTSAKQPTQPASELPSGRLFHAAAVISDAMYIFGGTVDNNIRSGEMYRFQFSCYPKCTLHEDYGRLWESRQFCDVEFVLGEKEECVQGHVAIVTARSRWLRRKITQARERLAQKLEQEAAPVPREAPGVAAGGARPPLLHVAIREAEARPFEVLMQFLYTDKIKYPRKGHVEDVLLIMDVYKLALSFQLCRLEQLCRQYIEASVDLQNVLVVCESAARLQLSQLKEHCLNFVVKESHFNQVIMMKEFERLSSPLIVEIVRRKQQPPPRTPLDQPVDIGTSLIQDMKAYLEGAGAEFCDITLLLDGHPRPAHKAILAARSSYFEAMFRSFMPEDGQVNISIGEMVPSRQAFESMLRYIYYGEVNMPPEDSLYLFAAPYYYGFYNNRLQAYCKQNLEMNVTVQNVLQILEAADKTQALDMKRHCLHIIVHQFTKVSKLPTLRSLSQQLLLDIIDSLASHISDKQCAELGADI
notes: Expressed in HEK 293T, HeLa or U87 cells; used as cell lysate; also called LZTR1 wild type-FLAG; LZTR1 WT; not shown: FLAG tag at the C-terminus
